Measurements: article PMC6435710

Assays:
[1] = biological target: salmon Calcitonin (salmon); assay: cross-linking; PICUP (Ru(bpy)3, ammonium persulfate, 2 s light) then tricine SDS-PAGE, silver stain and densitometry; native unfractioned Monomer-enriched sample (powder dissolved in desalted water, 80 uM)
[2] = biological target: salmon Calcitonin (salmon); assay: cross-linking; PICUP (Ru(bpy)3, ammonium persulfate, 2 s light) then tricine SDS-PAGE, silver stain and densitometry; PFOs-enriched SEC fractions (29th and 30th), 80 uM
[3] = biological target: salmon Calcitonin (salmon); assay: SEC; Sephadex G50 column at 4 °C, 5 mM phosphate buffer pH 7.4; spontaneously aggregated native sCT (2 mg incubated overnight at room temperature); calibrated with BSA, cytochrome c, aprotinin, somatostatin; absorbance at 280 nm

## salmon Calcitonin (peptide)
[1]
  PFOs% (trimers + tetramers + pentamers + hexamers percentage of the gel lane): 16.5%
[2]
  PFOs% (trimers + tetramers + pentamers + hexamers percentage of the gel lane): 54%
[3]
  stoichiometry N: 2
